In US20240390512A1, “METHODS OF TREATING CHEMOTHERAPY-RESISTANT CANCER WITH AN ANTIBODY-DRUG CONJUGATE” (DAIICHI SANKYO COMPANY, LIMITED, priority 2021, published 2024):
Where a chain is given by its changes, count along the chain named.

Tests used:
[1] = molecular target: T1, human CDH6 (full-length and EC domain deletion mutants) (Homo sapiens, UniProt P55285, DEL487-608); experiment: Epitope analysis of rat anti-CDH6 antibody by flow cytometry using domain deletion mutants; assay type: binding; conditions: flow cytometry; transfected 293α cells; antibody 20 nM
T1 construct: each one of the five EC domains could be deleted from full-length human CDH6; 3xFLAG (deletion mutants only, from the vector p3×FLAG-CMV-9); expressed in transfected cells; host or cells: 293α cells
T1 sequence (P55285 with tags, fused parts or gaps DEL487-608): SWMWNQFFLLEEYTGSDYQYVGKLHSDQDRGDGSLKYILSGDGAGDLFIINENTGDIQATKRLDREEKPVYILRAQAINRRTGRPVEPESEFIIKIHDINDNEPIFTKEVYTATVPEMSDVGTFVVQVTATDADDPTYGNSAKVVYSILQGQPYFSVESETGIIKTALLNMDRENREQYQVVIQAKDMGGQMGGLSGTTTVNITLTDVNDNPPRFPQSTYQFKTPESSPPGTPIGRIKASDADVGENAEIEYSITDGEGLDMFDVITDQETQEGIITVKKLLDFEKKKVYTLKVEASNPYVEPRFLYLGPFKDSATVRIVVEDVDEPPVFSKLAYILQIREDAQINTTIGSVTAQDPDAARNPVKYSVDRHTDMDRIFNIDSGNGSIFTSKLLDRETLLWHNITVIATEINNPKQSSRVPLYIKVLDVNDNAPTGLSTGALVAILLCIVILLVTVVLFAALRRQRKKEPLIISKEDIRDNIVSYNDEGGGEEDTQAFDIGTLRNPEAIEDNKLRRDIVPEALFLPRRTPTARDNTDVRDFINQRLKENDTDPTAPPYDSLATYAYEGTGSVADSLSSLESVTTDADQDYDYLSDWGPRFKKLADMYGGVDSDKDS
Description: (§1) The full-length extracellular region of human CDH6 has five extracellular domains, EC1 (SEQ ID NO: 2), EC2 (SEQ ID NO: 3), EC3 (SEQ ID NO: 4), EC4 (SEQ ID NO: 5), and EC5 (SEQ ID NO: 6). A gene to be expressed such that each one of the five EC domains could be deleted from full-length human CDH6 was synthesized by GeneArt, and incorporated into p3×FLAG-CMV-9 vectors for mammalian expression (Sigma-Aldrich Co. LLC) according to a method known to a person skilled in the art in order to produce an expression vector for each domain deletion mutant lacking any one of EC1 to EC5.
(§2) The epitopes to which the rat anti-human CDH6 antibodies bound were identified by flow cytometry analysis using a 293α cell line transfected with each EC domain deletion vector. Using Lipofectamine 2000 (Thermo Fisher Scientific Inc.), each domain deletion mutant expression vector produced in Reference Example 2)-2-1, or pcDNA3.1-hCDH6 for the expression of full-length human CDH6 was transiently introduced into a 293α cell line, which was a cell line derived from HEK293 cells by stable transfection with integrin αv and integrin […] expression vectors. The cells were cultured overnight under conditions of 37° C. and 5% CO2, and thereafter, a cell suspension was prepared. The suspension of the transfected 293α cells was centrifuged, and a supernatant was then removed. Thereafter, the cells were suspended by the addition of each of the 4 rat anti-CDH6 monoclonal antibodies (clone Nos: rG019, rG055, rG056 and rG061), which had been prepared in Reference Example 1)-7, or rat IgG control (R&D Systems, Inc.) (final concentration: 20 nM). The cells were left standing at 4° C. for 1 hour. The cells were washed twice with PBS supplemented with 5% FBS, and then suspended by the addition of Anti-Rat IgG (whole molecule)-FITC antibody produced in rabbit (Sigma-Aldrich Co. LLC) that had been 50-fold diluted with PBS supplemented with 5% FBS. The cells were left standing at 4° C. for 1 hour. The cells were washed twice with PBS supplemented with 5% FBS, followed by detection using a flow cytometer (Canto II; BD Biosciences). The data was analyzed using FlowJo (Tree Star, Inc.). In the histograms of FIGS. 2-1 to 2-6, the abscissa depicts FITC fluorescence intensity indicating the amount of the antibody bound, and the ordinate depicts cell count. […] Fluorescence intensity is enhanced when the antibody binds to full-length hCDH6 or each EC domain deletion mutant on the surface of cells. The rat IgG control binds to none of the transfected cells.

[2] = molecular target: T2, human CDH6 (full-length and EC domain deletion mutants) (Homo sapiens, UniProt P55285, DEL160-268); experiment: as above; assay type: binding; conditions: flow cytometry; transfected 293α cells; antibody 20 nM
T2 construct: each one of the five EC domains could be deleted from full-length human CDH6; 3xFLAG (deletion mutants only, from the vector p3×FLAG-CMV-9); expressed in transfected cells; host or cells: 293α cells
T2 sequence (P55285 with tags, fused parts or gaps DEL160-268): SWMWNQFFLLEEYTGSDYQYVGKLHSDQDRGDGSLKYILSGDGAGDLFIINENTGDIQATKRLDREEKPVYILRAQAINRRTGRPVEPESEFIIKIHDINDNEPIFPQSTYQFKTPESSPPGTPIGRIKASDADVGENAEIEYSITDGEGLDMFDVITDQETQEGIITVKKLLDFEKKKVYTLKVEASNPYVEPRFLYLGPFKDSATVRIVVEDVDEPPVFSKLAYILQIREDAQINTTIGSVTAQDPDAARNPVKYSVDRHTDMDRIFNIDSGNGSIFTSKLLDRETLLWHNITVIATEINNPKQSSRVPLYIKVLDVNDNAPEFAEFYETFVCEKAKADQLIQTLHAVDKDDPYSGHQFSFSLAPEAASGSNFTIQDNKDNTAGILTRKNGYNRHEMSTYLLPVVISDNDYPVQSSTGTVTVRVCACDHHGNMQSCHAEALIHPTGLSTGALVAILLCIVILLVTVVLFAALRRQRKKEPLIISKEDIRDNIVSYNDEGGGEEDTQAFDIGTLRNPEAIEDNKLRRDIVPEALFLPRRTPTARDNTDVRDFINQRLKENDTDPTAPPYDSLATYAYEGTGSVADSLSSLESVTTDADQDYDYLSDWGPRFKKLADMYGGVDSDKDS
Description: as §1, §2

B1: rG056: rat anti-human CDH6 monoclonal antibody produced by hybridoma rG056; variable regions SEQ ID NO: 30 and 35 (antibody, listed as Rattus norvegicus, V domains shown)
VL: DVQMTQSPSSLAASPGESVSISCRATKSIGIYLAWYQQKPGKTFKLLIYSGSTLQSGTPSRFSGSGSGTDFTLTIRSLEPEDFGLYFCQQFYENPFTFGSGTKLEIRRA
VH: EVQLQESGPGLVKPSQSLSLTCSVTDYSITTYFWGWIRKFPGNKMEWMGYMSYRGGTSYNPSLKSRISITRDTSKNQFFLQLNSVTTEDTATYYCARCPNYGGHSLVFDYWGQGVMVTVSS
In the case of B1, the “binding to EC5 deletion mutant” value [1] is reported as “bind” and the “binding to EC2 deletion mutant” value [2] is reported as “bind”.

B2: rG055: rat anti-human CDH6 monoclonal antibody produced by hybridoma rG055; variable regions SEQ ID NO: 20 and 25 (antibody, listed as Rattus norvegicus, V domains shown)
VL: DVQMTHSPSYLAASPGESVSISCKTSKNISNYLVWYQQKPGEAYKLLIYSGSTLQSGTPSRFSGSGSGTDFTLTIRSLEPEDFGLYFCQQYYEKPFTFGSGTKLEIKRA
VH: EVQLQESGPGLVRPSQSLSLSCSVTDYSITSNYWGWIRRFPGNKMEWMGYITYSGYTSYNPSLQSRISITRDTSKNQFFLQLNSVTAEDTATYYCARSINHGGYSYVVDAWGPGASVTVSS
For B2, the “binding to EC5 deletion mutant” value [1] was “bind” and the “binding to EC2 deletion mutant” value [2] was “bind”.

B3: rG061: rat anti-human CDH6 monoclonal antibody produced by hybridoma rG061; variable regions SEQ ID NO: 40 and 45 (antibody, listed as Rattus norvegicus, V domains shown)
VL: B2 VL with H6Q, T25A, S26T, N28S, V34A, L46V, F87S, F96L
VH: EVQLQESGPGLVKPSQSLSLTCSVTGYSITTYYWGWIRKFPGNKMEWMGYISYSGRTSYNPSLKSRMSITRDASKNQFFLQLNSVTTDDTATYYCARSPINHGGYWYFDFWGPGTMVTVSS
B3 was tested, and the “binding to EC5 deletion mutant” value [1] was “bind” and the “binding to EC2 deletion mutant” value [2] was “bind”.

B4: rG019: rat anti-human CDH6 monoclonal antibody produced by hybridoma rG019; variable regions SEQ ID NO: 10 and 15 (antibody, listed as Rattus norvegicus, V domains shown)
VL: DIQMTQSPSLLSASVGDRVTLNCKASQNIYKNLAWYQQKLGEGPKLLIYDANTLQTGIPSRFSGSGSGSDFTLTISSLQPEDVATYFCQQYYSGWAFGGVTNLELKRA
VH: QVQLQQSGAELVKPGSSVKISCKASGYTFTRNFMHWIKQQPGNGLEWIGWIYCGDGETEYNQKFNGKATLTADRSSSTAYMELSRLTSEDSAVYFCARGVYGGFAGGYFDFWGQGVMVTVSS
In the case of B4, the “binding to EC5 deletion mutant” value [1] is reported as “bind” and the “binding to EC2 deletion mutant” value [2] is reported as “bind”.
